Laboratory results: the supplement of paper PMC7125110
± gives the standard error. Fewer inactive variants are shown than the library holds.

B1: glmS ribozyme (parent)
chain: AUAAAAGCGCCAGAACUACAGAAAUGUAGUUGACGAGGAGGAGGUUUAUCGAAUUUUCGGCGGAUGCCUCCAAA

What was measured:
Settings in all cases: with glucosamine-6-phosphate
glucosamine-6-phosphate [1] = variants of: B1; experiment: self-cleavage kobs at 640 uM GlcN6P; higher = faster cleavage; RNA array
Outline: (§1)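 Glucosamine-6-phosphate, from 40 μM to 10 mM in HEPES/KCl/Mg(OAc)2 buffer, was flowed over sequenced MiSeq chips carrying barcoded ribozyme variants transcribed in situ by E. coli RNA polymerase. A hybridised Cy3 probe tracked the variants at 37 °C as tiles were imaged over ~14 h. kobs, kcat and KM were obtained by fitting normalised per-tile medians to exponential decays and then applying weighted Michaelis–Menten fits across concentrations.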

glucosamine-6-phosphate [2] = variants of: B1; experiment: self-cleavage kobs at 2500 uM GlcN6P; higher = faster cleavage; RNA array
Outline: as §1

glucosamine-6-phosphate [3] = variants of: B1; experiment: self-cleavage kobs at 10000 uM GlcN6P; higher = faster cleavage; RNA array
Outline: as §1

Row | Variant | self-cleavage kobs at 640 uM GlcN6P (glucosamine-6-phosphate [1]) | self-cleavage kobs at 2500 uM GlcN6P (glucosamine-6-phosphate [2]) | self-cleavage kobs at 10000 uM GlcN6P (glucosamine-6-phosphate [3])
1 | C34G A36G C71U | < 1e-05 s⁻¹ |  | 
2 | G32U C58A C67A | 7.59e-05 ± 1.8e-05 s⁻¹ | 0.000241 ± 4.9e-05 s⁻¹ | 
3 | A36U G43U U65A | < 1e-05 s⁻¹ | < 1e-05 s⁻¹ | 
4 | C8G G38U G41A U46G G59A | < 1e-05 s⁻¹ | < 1e-05 s⁻¹ | 
5 | A6C A12U G51U U54G | < 1e-05 s⁻¹ | < 1e-05 s⁻¹ | 
6 | C11U A12C C70G | 0.000165 ± 6.8e-05 s⁻¹ |  | 
7 | U30G A42G G66A C71A | 0.00018 ± 5.9e-05 s⁻¹ | 0.000159 ± 4.2e-05 s⁻¹ | 
8 | C10G G40U C71U | < 1e-05 s⁻¹ | < 1e-05 s⁻¹ | 
9 | C16A G59U G60A | < 1e-05 s⁻¹ |  | 
10 | C8A G9A G13U | < 1e-05 s⁻¹ |  | 
11 | G32C A48U A64C | < 1e-05 s⁻¹ |  | 
12 | C58U U69A | 6.22e-05 ± 2.6e-05 s⁻¹ |  | 
13 | G9U G32C A33G A39G A48U C61U G63U A64U | < 1e-05 s⁻¹ | < 1e-05 s⁻¹ | 
14 | A14G G35A C71G | < 1e-05 s⁻¹ |  | 
15 | C8A U31C G32A | < 1e-05 s⁻¹ |  | 
16 | C10A C16A A36C A42G U46A U54C U56G G63U | < 1e-05 s⁻¹ |  | < 1e-05 s⁻¹
17 | A12C G35A A36C U56G G60C | < 1e-05 s⁻¹ | < 1e-05 s⁻¹ | 
18 | U46C G51C C70U | < 1e-05 s⁻¹ | < 1e-05 s⁻¹ | 
19 | A48G U55C G59C | < 1e-05 s⁻¹ | < 1e-05 s⁻¹ | 
20 | C16U A36U G59U A64U | < 1e-05 s⁻¹ |  | 
21 | G7C C10A G13A A33C | < 1e-05 s⁻¹ | < 1e-05 s⁻¹ | < 1e-05 s⁻¹
22 | C8U A15U U46G G51A G66A | < 1e-05 s⁻¹ |  | 

Row | Variant | self-cleavage kobs at 640 uM GlcN6P (glucosamine-6-phosphate [1]) | self-cleavage kobs at 2500 uM GlcN6P (glucosamine-6-phosphate [2]) | self-cleavage kobs at 10000 uM GlcN6P (glucosamine-6-phosphate [3])
23 | C11A G37A C50U G59A C67U U69G | 6.37e-05 ± 2.7e-05 s⁻¹ |  | 
24 | G29A A36C | < 1e-05 s⁻¹ | < 1e-05 s⁻¹ | < 1e-05 s⁻¹
25 | U31C U46C | 7.34e-05 ± 2.3e-05 s⁻¹ | 0.000204 ± 3.7e-05 s⁻¹ | 0.000295 ± 8e-05 s⁻¹
26 | C11U G32C A36G | < 1e-05 s⁻¹ | < 1e-05 s⁻¹ | < 1e-05 s⁻¹
27 | A14G U45G C50G C68G | < 1e-05 s⁻¹ |  | 
28 | G13C G29U C71G | < 1e-05 s⁻¹ |  | 
29 | G51C G63U | < 1e-05 s⁻¹ |  | < 1e-05 s⁻¹
30 | A42U G44C | < 1e-05 s⁻¹ | < 1e-05 s⁻¹ | < 1e-05 s⁻¹
31 | C11G C58A C68A | 0.000165 ± 6.6e-05 s⁻¹ |  | 
32 | C11G G60U A64U | < 1e-05 s⁻¹ | < 1e-05 s⁻¹ | 
33 | G7C G40U | < 1e-05 s⁻¹ | < 1e-05 s⁻¹ | < 1e-05 s⁻¹
34 | A12C U49G C67U | 5e-05 ± 1.4e-05 s⁻¹ | 7.89e-05 ± 1.5e-05 s⁻¹ | 
35 | C8U G35C C68U | < 1e-05 s⁻¹ |  | 
36 | U30A A36U C70G | 0.000179 ± 6.1e-05 s⁻¹ | 0.000108 ± 4.4e-05 s⁻¹ | 3.78e-05 ± 1.7e-05 s⁻¹
37 | A33C G35A G41A | < 1e-05 s⁻¹ | < 1e-05 s⁻¹ | 
38 | A6G G29C G35U A42C C58G C68G | < 1e-05 s⁻¹ |  | 
39 | G38A G44U G62U | < 1e-05 s⁻¹ | < 1e-05 s⁻¹ | 
40 | A48U C58A C61G | < 1e-05 s⁻¹ |  | 
41 | C11G U30G A42U A53U G63U U65A C68G | < 1e-05 s⁻¹ |  | 
42 | C10G C11U G41A C70U | < 1e-05 s⁻¹ |  | 
43 | C34A A53G U56C | < 1e-05 s⁻¹ |  | 
44 | G7A G44C C50U | < 1e-05 s⁻¹ | < 1e-05 s⁻¹ | 

Row | Variant | self-cleavage kobs at 640 uM GlcN6P (glucosamine-6-phosphate [1]) | self-cleavage kobs at 2500 uM GlcN6P (glucosamine-6-phosphate [2]) | self-cleavage kobs at 10000 uM GlcN6P (glucosamine-6-phosphate [3])
45 | A6G U31G G35A U65C | < 1e-05 s⁻¹ | < 1e-05 s⁻¹ | 
46 | C50A U54C U57C C70A | < 1e-05 s⁻¹ |  | 
47 | A15G G44C G59U | < 1e-05 s⁻¹ | < 1e-05 s⁻¹ | 
48 | C34A G44U C50A | < 1e-05 s⁻¹ |  | 
49 | A12U G32C C50G C70G | 0.000371 ± 0.00015 s⁻¹ | 0.000257 ± 8.3e-05 s⁻¹ | 
50 | C11G A42U G59U | < 1e-05 s⁻¹ | < 1e-05 s⁻¹ | 
51 | G60U G63U C70A | < 1e-05 s⁻¹ |  | 
52 | G51U A53U U54A | < 1e-05 s⁻¹ |  | < 1e-05 s⁻¹
53 | G13U G35U G40U A53U | < 1e-05 s⁻¹ |  | 
54 | A6G U46C U47A | < 1e-05 s⁻¹ |  | 
55 | U45G U69C | 0.0407 ± 0.018 s⁻¹ |  | 
56 | A6G A39C G63U A64U C67G | < 1e-05 s⁻¹ |  | < 1e-05 s⁻¹
57 | A14U A36G U47A | < 1e-05 s⁻¹ | < 1e-05 s⁻¹ | 
58 | C10G G60U G63U | < 1e-05 s⁻¹ |  | 
59 | C34U A52G U54G | < 1e-05 s⁻¹ | < 1e-05 s⁻¹ | 
60 | A14G U31G C50G | 0.000132 ± 3.6e-05 s⁻¹ |  | 
61 | G32C G44C A48C C67G | < 1e-05 s⁻¹ | < 1e-05 s⁻¹ | 
62 | C8G A39U U46G U69G | < 1e-05 s⁻¹ | < 1e-05 s⁻¹ | 
63 | G13U U56G C70G | 6.47e-05 ± 3.1e-05 s⁻¹ | 4.09e-05 ± 1.9e-05 s⁻¹ | 
64 | G13C G29C | 2.89e-05 ± 9.5e-06 s⁻¹ | 3.23e-05 ± 1.2e-05 s⁻¹ | 9.98e-05 ± 2.1e-05 s⁻¹
